A word on the IC50: it is the concentration needed to halve the response being measured. A low value points to higher potency.

T1 sequence (P05019 49-118): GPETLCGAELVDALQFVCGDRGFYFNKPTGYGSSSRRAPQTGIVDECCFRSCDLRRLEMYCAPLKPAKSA

One assay concerns the target T1, IGF-1 (human, UniProt P05019). Description: competition, 125I-IGF-1 binding to MCF-7 cells.
RNCFESVAALRRCMYG [F1-1] gave a half-inhibitory concentration (IC50) of 5.12 µM.

FECLTSVEALRGCMYG [F1-3] came in with an IC50 of 45.7 µM.

Regarding MDCLASVEALKWCMYG [F1-2], the half-inhibitory concentration (IC50) was 15.3 µM. Against the preceding molecule, the IC50 is about 3-fold lower.

A further assay addresses T1, IGF-1. Description: competition, IGF-1 phage binding to IGFBP-3.
RNCFESVAALRRCMYG [F1-1] gave an IC50 of 2.93 µM.

For the molecule FECLTSVEALRGCMYG [F1-3], the IC50 was found to be 12.8 µM.

For MDCLASVEALKWCMYG [F1-2], the IC50 was 9.2 µM.

For another assay, the target named is T1, IGF-1. Description: competition, IGF-1 phage binding to IGFBP-1.
Molecule RNCFESVAALRRCMYG [F1-1] registered a concentration for half-maximal inhibition (IC50) of 1.4 µM.

The molecule FECLTSVEALRGCMYG [F1-3] registered an IC50 of 11.7 µM.

MDCLASVEALKWCMYG [F1-2] gave an IC50 of 15.5 µM.

For the origin of these results see patent publication US7071300 (dated 2006).
